According to article PMC8514162:
Read-outs that look alike come from different tables or passages of the source.

Assays:
Assay in all cases: native MS
[1] = molecular target: haptoglobin Hp 1-1, tetramer H-L-L-H (human) (UniProt P00738)
[2] = molecular target: haptoglobin Hp 2-1 isoform HL(L*H)2LH (human) (UniProt P00738)
[3] = molecular target: haptoglobin Hp 2-1 isoform HL(L*H)LH (human) (UniProt P00738)
[4] = molecular target: haptoglobin Hp 1-1, tetramer H-L-L-H (human) (UniProt P00738); remark: listed apart in the source
[5] = molecular target: haptoglobin Hp 2-1 isoform HL(L*H)LH (human) (UniProt P00738); remark: listed apart in the source

stoichiometry N (Hb dimers per Hp molecule) [1]: 2 | stoichiometry N (semi-Hb dimers per HLLH) [1]: 2 | stoichiometry N (α*β* dimers per HLLH) [1]: 2 | stoichiometry N (dimeric Hb subunits per HL(L*H)2LH) [2]: 4 | stoichiometry N (semi-Hb dimers per HL(L*H)LH) [3]: 3 | stoichiometry N (α*β* dimers per HLLH) [4]: 2 | stoichiometry N (semi-Hb dimers per HL(L*H)LH) [5]: 3
Substance: semi-hemoglobin dimer α*β* of hemoglobin (Hb) (from UniProt P69905 1-142; P68871 1-147) (complex)
